Results: patent EP4261278A1

Molecular target: NDM-type carbapenemase (New Delhi metallo-β-lactamase), recombinant
Assay: indirect ELISA, plate coated with 0.2 µg/mL NDM carbapenemase, goat anti-mouse secondary antibody, TMB
Settings: scale: reciprocal dilution

Row | Binder | titer
1 | anti-NDM-type carbapenemase mouse mAb 1GH10 (antibody, V domains shown) VH: SRDYGLRVELVRPGTSVKVSCKASGYAFSNYLIEWVKQRPGQGLEWIGVINPGRDDTNYNEKFKGKATLTADKSSSTAYMHLSSLTSDDSAVYFCARFPSILRYDSGSFSYFGLDCWGQGTSVTVSS VL: DVLMTQTPLSLSVSLGDQASISCRSSQSIVHSDGNTYLDWYLQKPGQSPKLLIYKVSNRFSGVPDRFSGSGSGTDFTLKITRVEAEDLGVYYCFQISRVPFTFGSGTKLEIKR | > 1.28e+06
2 | anti-NDM-type carbapenemase mouse mAb 12HE11 (antibody, V domains shown) VH: VQLHESGPELVKPGASVKLSCTASGYTLSDYHVKWVKQNHGQSLEWIGDIRPQNGDIVYNQKFKDKATLTVDKSSTTAYIRLSSLTSEDSAVYYCAFHYYAYGKWFPYWGQGTLVTVS VL: DILMTQSPSSLTVTAGEKVTLSCRSSQSLFNSGNQKNYLTWHQQKPGQSPKLLIYWAVTRESGVPDRFTGSGSGTDFTLTISSVQAEDLAIYYCQNDYSYPLTFGAGTKLELK | > 1.28e+06
